For one assay, the target named is T1, EGFR(WT)-HLA-A3 (human).
T1 construct: also called EGFR(WT) peptide-pulsed T2A3 cells
Description: off-rate ELISA on monomer-coated strips, 22 C.

The target in assay [1] is T2, KRAS(WT)-HLA-A3 (human, biotinylated in the recombinant monomer (site not stated)).
T2 construct: Monomer in ELISA; also called KRAS(WT)-HLA-A3 monomer; KRAS(WT) control peptide on T2A3 cells
The assay is described as follows: flow cytometry, T2A3 cells pulsed with the KRAS(WT) control peptide. On the technique in general: Flow cytometry measures light scatter and fluorescence of single cells or particles in a stream.

The target in assay [2] is T3, KRAS(WT)-HLA-A2 (human, biotinylated in the recombinant monomer (site not stated)).
T3 construct: Monomer in ELISA and off-rate assays; on pulsed T2 cells in flow cytometry and CDC; also called KRAS(WT)-HLA-A2 monomer; KRAS(WT) peptide-pulsed T2 cells
Description: ELISA on monomers, anti-human IgG. A general note: ELISA stands for enzyme-linked immunosorbent assay.

The target in assay [3] is T3, KRAS(WT)-HLA-A2. The assay is described as follows: off-rate ELISA on monomer-coated strips.
Assay [4] deals with T3, KRAS(WT)-HLA-A2. The assay is described as follows: phage ELISA after affinity maturation.
Assay [5] deals with T2, KRAS(WT)-HLA-A3. The assay is described as follows: ELISA of purified scFv on monomers, anti-Flag.
The target in assay [6] is T4, ELA control peptide on HLA-A2 (human).
T4 construct: ELA-pulsed T2 cells; also called negative HLA-A2 control peptide ELA; irrelevant peptide
The assay is described as follows: flow cytometry, peptide-pulsed T2 cells.

Assay [7] deals with T3, KRAS(WT)-HLA-A2. Description: flow cytometry, peptide-pulsed T2 cells.

Numbering of substitutions follows the chain as printed. Numbers in names are those of the source.

B1: purified C9 scFv (scFv)
scFv: DIQMTQSPSSLSASVGDRVTITCRASQDVNTAVAWYQQKPGKAPKLLIYSASFLYSGVPSRFSGSRSGTDFTLTISSLQPEDFATYYCQQYYSYPPTFGQGTKVEIKRTGGGSGGGGSGGGASEVQLVESGGGLVQPGGSLRLSCAASGFNITSSYIHWVRQAPGKGLEWVAYISPEDGYARHADSVKGRFTISADTSKNTAYLQMNSLRAEDTAVYYCSRDDTYYYSAMDVWGQGTLVTVSS
notes: not shown: Flag and His tags
Take B1: the koff (usually a measure of how fast the partners let go of each other) with EGFR(WT)-HLA-A3 came out at 3e-05 s⁻¹.

B2: phage clone C9 (scFv, not shown: large carriers)
scFv: B1 scFv
notes: also called C9 phage
On to B2, for which, in the assay with KRAS(WT)-HLA-A3 [1], the binding result is recorded as “no binding”.

B3: D10 MANAbody (antibody, V domains shown)
VH: EVQLVESGGGLVQPGGSLRLSCAASGFNINGSYIHWVRQAPGKGLEWVAYIDPETGYSRYADSVKGRFTISADTSKNTAYLQMNSLRAEDTAVYYCSRDSASDAMDVWGQGTLVTVSS
VL: DIQMTQSPSSLSASVGDRVTITCRASQDVNTAVAWYQQKPGKAPKLLIYSASFLYSGVPSRFSGSRSGTDFTLTISSLQPEDFATYYCQQYYYYPPTFGQGTKVEIK
notes: Complete bivalent antibody made in Expi293 cells; also called full-length D10 MANAbody; D10 antibody
Turning to B3, in the assay with KRAS(WT)-HLA-A2 [2], the binding result is “no binding (tested: 1 µg/mL (top of the dilution series))”.

B4: purified D10-7 scFv (scFv, not shown: small tags and cut ends)
scFv: DIQMTQSPSSLSASVGDRVTIACRASQDVNTAVAWYQQKPGKAPKLLIYSASFLYSGVPSRFSGSRSGTDFTLTISSLQPEDFATYYCQQYYYYPPTFGQGTKVEIKRTGGGSGGGGSGGGASEVQLVESGGGLVQPGGSLRLSCAASGFHINGSYIHWVRQAPGKGLKWVAYIDPETGYSRYADSVKGRFAISADMSKNTAYLQMNSLRAEDTAVYYCSRDSASDAMDVWGQGTLVTVSS
notes: conjugated to an anti-V5 antibody in the CDC assay
Take B4: in the assay with KRAS(WT)-HLA-A2 [3], the binding result is “no binding”.

B5: clone D10-7 (phage, as tested by ELISA in the affinity maturation) (scFv)
scFv: B4 scFv
notes: One of eight clones from the error-prone PCR library of D10; not shown: phage display fusion partner used at AxioMx is not described
Turning to B5, the binding result with KRAS(WT)-HLA-A2 [4] is “no binding”.

B6: purified D10 scFv (scFv, not shown: small tags and cut ends)
scFv: B4 scFv with A22T, H151N, K169E, A192T, M197T
notes: Flag/His form in ELISA, AlphaScreen and off-rate assays; V5/His form in cell staining and, conjugated 2:1 to an anti-V5 mouse antibody, in the CDC assay
Regarding B6, in the assay with KRAS(WT)-HLA-A3 [5], the binding result is reported as “no binding (tested: 1 µg/mL (top of the dilution series))”.

B7: D3E6 phage (scFv)
scFv: DIQMTQSPSSLSASVGDRVTITCRASQDVNTAVAWYQQKPGKAPKLLIYSASFLYSGVPSRFSGSRSGTDFTLTISSLQPEDFATYYCQQYYYYPPTFGQGTKVEIKRTGGGSGGGGSGGGASEVQLVESGGGLVQPGGSLRLSCAASGFNISTSYIHWVRQAPGKGLEWVATIDPNDGYSRYADSVKGRFTISADTSKNTAYLQMNSLRAEDTAVYYCSRTNNTAADAMDVWGQGTLVTVSS
notes: also called EGFR T790M clone 1; not shown: myc tag, TEV cleavage site and full length M13 pIII coat protein
As to B7, the binding result in assay [6] is reported as “no binding”.

B8: KRAS G12V_F10 AM#1 (scFv)
scFv: DIQMTQSPSSLSASVGDRVTITCRASQDVNTAVAWYQQKPGKAPKLLIYSASFLYSGVPSRFSGSRSGTDFTLTISSLQPEDFATYYCQQYYYYPPTFGQGTKVEIKRTGGGSGGGGSGASEVQLVESGGGLVQPGGSLRLSCAASGFNINSNYIHWVRQAPGKGLEWVAYITPETGYYHYADSVKGRFTISADTSKNTAYLQMNSLRAEDTAVYYCSRNYYSAYAMDVWGQGTLVTVSS
As to B8, in the assay with KRAS(WT)-HLA-A2 [7], the binding result was “no binding”.

B9: KRAS G12V_F10 AM#2 (scFv)
scFv: B8 scFv with S50G, N149Y
With B9, the binding result in the assay with KRAS(WT)-HLA-A2 [7] is “no binding”.

B10: KRAS G12V_F10 AM#3 (scFv)
scFv: B8 scFv with T5S, A25T, V29A, I48F, Y55F, H180R
As to B10, the binding result with KRAS(WT)-HLA-A2 [7] was “no binding”.

These data come from patent publication US20180086832A1 (Johns Hopkins, published 2018).
